Laboratory results published in patent publication US20240115706A1.
Where a chain is given by its changes, count along the chain named.

B1: scFv B12 (scFv)
scFv: QVQLVESGGGLVKPGGSLRLSCAASGFTFSSYSMNWVRQAPGKGLEWVSVIYSGGSTHYADSVKGRFTISRHNSKNTLYLQMNSLRAEDTAVYYCARGAGTLNAFDIWGQGTTVTVSSGGGGSGGGGSGGGASQSGLTQPPSTSGSPGQSVTISCTGTSSDVGAYSYVSWYQQHPGKAPKLLIYAVTKRPSGVPDRFSGSKSGNTASLTVSGLQDEDEADYYCSSFAGGSTLVFGGGTKLTVL
B2: scFv A05 (scFv)
scFv: QVQLVQSGAEVKKPGSSVKVSCKASGGTFSSYTITWVRQAPGQGLEWMGRIIPVLGIANYAQKFQGRVTITADKSTSTAYMELSSLRSEDTAVYYCARDYSSSWNSMDVWGQGTLVTVSSGGGGSGGGGSGGGASQSGLTQPRSVSGSPGQSVTISCTGTSSDVGGYNYVSWYQQHPGKAPKLMIYDVSKRPSGVPDRFSGSKSGNTASLTVSGLHAEDEADYYCSSYAGSNNFVFGTGTKVTVL
B3: scFv A06 (scFv)
scFv: B2 scFv with S30G, T35S, V54I, G166A, D187E, G201A, H216Q, F234W, T238G, V242L
B4: scFv B01 (scFv)
scFv: EVQLVQPGAEVKKPGSSVKVSCKASGGTLSSYAISWVRQAPGQGLEWMGRIIPILGITNYAQKFQGRVTITADKSTSTAYMELSSLRSEDTAVYFCARDQRPASMDVWGQGTLVTVSSGGGGSGGGGSGGGASQSGLTQPASVSGSPGQSITISCTGTSSDVGGYNYVSWYQQHPGKAPKLMIYEVSNRPSGVSNRFSGSKSGNTASLTISGLQAEDEADYYCSTVTSLSTYVFGTGTKLTVL
B5: scFv A03 (scFv)
scFv: QVQLVQSGAEVKKPGSSVKVSCKASGGTFSSYTISWVRQAPGQELEWMGRIIPILGIANYAQKFQGRVTITADKSTSTAYMELSSLRSEDTAVYYCARDYSSSWNSMDVWGQGTLVTVSSGGGGSGGGGSGGGASQSGLTQPPSASGSPGQSVTISCTGTSSDIGYYHYVSWYQQHPGKAPKLMIYEDSKRPSGISNRFSGSKSGTTASLTVSGLQAEDEAHYYCSSFTSRSTWVFGGGTQLTVL
B6: scFv C02 (scFv)
scFv: QVQLVQSGAEVKKPGSSVKVSCKASGGTFSSYTISWVRQAPGQGLEWMGRIIPILGIANYAQKFQGRVTITADKSTSTAYMELSSLRSEDTAVYYCARDRSYNWLDPWGRGTLVTVSSGGGGSGGGGSGGGASQSALTQPVSVSGSPGQSITISCTGTISDVGDYNYVSWYQQHPGKAPKLMIYDVNNRPSGVSNRFSGSKSGNTASLTISGLQAEDEADYYCSSYTSSSTLVFGGGTKLTVL
B7: scFv A01 (scFv)
scFv: QVQLVQSGAEVKKPGASVKVSCKASGYTFTSYYMHWVRQAPGQGLEWMGIINPSGGSTSYAQEFQGRVTMTRDTSTSTVYMELSSLRSEDTAVYYCARDGQWLQFDYWGQGTLVTVSSGGGGSGGGGSGGGASDIVMTQSPLSLPVTLGQPASISCRSSQSLLKKSDGNTYLSWYHQRPGQSPRRLIYKVSNRDSGVPDRFSGSGSDTDFTLKISRVETEDVGIYYCMQGSHWPPTFGQGTKVEIK
B8: scFv A04 (scFv)
scFv: EVQLVQPGAEVKKPGSSVKVSCKASGGTLSSYAISWVRQAPGQGLEWMGRIIPILGITNYAQKFQGRVTITADKSTSTAYMELSSLRSEDTAVYFCARDQRPASMDVWGQGTLVTVSSGGGGSGGGGSGGGASQSELTQPASVSGSPGQSITISCTGTSSDVGGYIYVSWYQQHPGKVPKLMIHDVSHRPSGVSNRFSGSRSGNTASLTISGLQAEDEADYFCSSYTSSNNYYFGTGTKVTVL
B9: scFv A02 (scFv)
scFv: B8 scFv with T227A, S228G, Y233V
B10: scFv A12 (scFv)
scFv: B8 scFv with Y233V
B11: scFv B07 (scFv)
scFv: EVQLVQSGAEVKRPGSSVKVSCKASGYTFTSYYMHWVRQAPGQGLEWMGIINPSGGSTSYAQKFQGRVTMTRDTSTSTVYMELSSLRSEDTAVYYCAAGTYSSGWTIDYWGQGTTVTVSSGGGGSGGGGSGGGASDIVMTQSPLSLPVTLGQPASISCRSSQSLVYTDGNTYLNWFQQRPGQSPRRLIYKVSNRDSGVPDRFSGSGSGTDFTLKISRVEAEDVGIYYCMHSKQWPPTFGGGTKVEIK

What was measured:
[1] = molecular target: mouse GUCY2C-rCD4 fusion protein (Mus musculus (house mouse); Rattus norvegicus); experiment: ELISA (DELFIA), antigen on streptavidin plate, scFv culture solution, Eu-anti-tag Ab
[2] = molecular target: monkey GUCY2C-rCD4 fusion protein (Macaca fascicularis (crab-eating macaque); Rattus norvegicus); experiment: as above
monkey GUCY2C-rCD4 fusion protein (Macaca fascicularis (crab-eating macaque); Rattus norvegicus), sequence (chain, as listed by the source limits assumed): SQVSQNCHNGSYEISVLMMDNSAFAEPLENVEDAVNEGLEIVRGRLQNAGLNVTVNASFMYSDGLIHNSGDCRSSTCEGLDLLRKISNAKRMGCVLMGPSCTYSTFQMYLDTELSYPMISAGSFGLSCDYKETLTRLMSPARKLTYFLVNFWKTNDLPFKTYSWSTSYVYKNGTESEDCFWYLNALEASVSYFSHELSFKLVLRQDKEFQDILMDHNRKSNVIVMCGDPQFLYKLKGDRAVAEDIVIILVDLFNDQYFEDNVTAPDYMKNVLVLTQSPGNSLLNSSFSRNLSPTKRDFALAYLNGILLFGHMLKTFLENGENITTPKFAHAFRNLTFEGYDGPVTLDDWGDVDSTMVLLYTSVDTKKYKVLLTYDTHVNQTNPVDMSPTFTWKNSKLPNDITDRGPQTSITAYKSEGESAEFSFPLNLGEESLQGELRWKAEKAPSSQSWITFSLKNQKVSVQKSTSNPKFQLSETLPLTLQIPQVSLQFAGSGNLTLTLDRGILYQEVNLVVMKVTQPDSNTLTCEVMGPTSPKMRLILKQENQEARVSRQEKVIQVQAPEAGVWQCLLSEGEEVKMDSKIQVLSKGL

Binder	Binding ELISA signal [1]	Binding ELISA signal [2]
B1	48	–
B2	62	89
B3	80	–
B4	70	–
B5	77	–
B6	61	–
B7	352	–
B8	66	73
B9	74	60
B10	53	56
B11	66	–
